IntAct's records for PubMed 12374762

B1: Aryl-hydrocarbon-interacting protein-like 1 (Homo sapiens), Q9NZN9 (parent)
chain: MDAALLLNVEGVKKTILHGGTGELPNFITGSRVIFHFRTMKCDEERTVIDDSRQVGQPMHIIIGNMFKLEVWEILLTSMRVHEVAEFWCDTIHTGVYPILSRSLRQMAQGKDPTEWHVHTCGLANMFAYHTLGYEDLDELQKEPQPLVFVIELLQVDAPSDYQRETWNLSNHEKMKAVPVLHGEGNRLFKLGRYEEASSKYQEAIICLRNLQTKEKPWEVQWLKLEKMINTLILNYCQCLLKKEEYYEVLEHTSDILRHHPGIVKAYYVRARAHAEVWNEAEAKADLQKVLELEPSMQKAVRRELRLLENRMAEKQEEERLRCRNMLSQGATQPPAEPPTEPPAQSSTEPPAEPPTAPSAELSAGPPAEPATEPPPSPGHSLQH

Variants of: B1
Conditions: with nub1_human NUB1, Q9Y5A7
nub1_human NUB1, Q9Y5A7, sequence (Q9Y5A7 whole entry): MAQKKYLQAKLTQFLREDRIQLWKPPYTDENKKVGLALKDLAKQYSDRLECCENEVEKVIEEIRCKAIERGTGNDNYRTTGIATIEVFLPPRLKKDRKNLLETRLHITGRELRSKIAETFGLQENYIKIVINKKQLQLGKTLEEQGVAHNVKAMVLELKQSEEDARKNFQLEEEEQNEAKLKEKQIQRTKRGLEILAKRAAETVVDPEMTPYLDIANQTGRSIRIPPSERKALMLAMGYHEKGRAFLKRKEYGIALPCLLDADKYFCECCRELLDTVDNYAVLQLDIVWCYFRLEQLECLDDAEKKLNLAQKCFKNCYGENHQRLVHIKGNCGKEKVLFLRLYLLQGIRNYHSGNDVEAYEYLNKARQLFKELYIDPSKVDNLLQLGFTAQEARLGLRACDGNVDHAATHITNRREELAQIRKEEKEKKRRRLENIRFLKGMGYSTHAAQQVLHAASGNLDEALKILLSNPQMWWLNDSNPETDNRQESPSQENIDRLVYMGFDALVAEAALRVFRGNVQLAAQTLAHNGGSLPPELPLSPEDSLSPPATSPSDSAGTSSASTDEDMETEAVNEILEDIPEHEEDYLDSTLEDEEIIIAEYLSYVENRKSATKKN

| Variant | effect of a mutation on the interaction |
| --- | --- |
| R53W | decreasing interaction |
| R302L | decreasing interaction |
| G262S | decreasing interaction |
| V96I | decreasing interaction |
| M79T | decreasing interaction |
